The target in assay [1] is T1, human CD40 (hCD40) expressed on cells (human, UniProt P25942 21-277). The assay is described as follows: cell-based or functional assay.
Assay [2] concerns the target T1, human CD40 (hCD40) expressed on cells. The assay is described as follows: cell-based or functional assay. This is another data set of the same source.
Assay [3] has the same target. Nature of the assay: cell-based or functional assay. The source holds these as a separate data set.
The target in assay [4] is T2, mouse CD40 extracellular domain expressed with a C-terminal myc-myc-hexahistidine tag (mouse).
T2 construct: also called mCD40-MMH; REGN3098
T2 chain: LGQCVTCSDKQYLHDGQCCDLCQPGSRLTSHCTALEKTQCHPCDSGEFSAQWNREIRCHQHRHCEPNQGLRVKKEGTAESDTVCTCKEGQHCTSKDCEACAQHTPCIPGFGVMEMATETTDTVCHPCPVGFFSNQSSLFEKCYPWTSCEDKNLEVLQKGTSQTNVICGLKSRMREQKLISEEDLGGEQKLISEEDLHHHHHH
Nature of the assay: SPR Biacore 4000, mAb captured, 37C. Here is the method:
(§1) The equilibrium dissociation constants (KD) for anti-CD40 bivalent and bispecific monoclonal antibodies (mAbs) were determined using a real-time surface plasmon resonance (SPR)-based Biacore 4000 biosensor. All binding studies were performed in 10 mM HEPES, 150 mM NaCl, 3 mM EDTA, and 0.05% v/v surfactant Tween-20, pH 7.4 (HBS-ET) running buffer at 25° C. and 37° C. The Biacore CM5 sensor surface was first derivatized by amine coupling with a monoclonal mouse anti-human Fc antibody (REGN2567) to capture anti-CD40 bivalent parental and anti-CD40×CD40 bispecific antibodies. Different concentrations of CD40 reagents, human CD40 extracellular domain expressed with a C-terminal myc-myc-hexahistidine tag (SEQ ID NO: 1114) (“hCD40-MMH”; REGN3094; SEQ ID NO: 53), monkey CD40 extracellular domain expressed with a C-terminal myc-myc-hexahistidine tag (SEQ ID NO: 1114) (“mfCD40-MMH”; REGN3097; SEQ ID NO: 54), and mouse CD40 extracellular domain expressed with a C-terminal myc-myc-hexahistidine tag (SEQ ID NO: 1114) (“mCD40-MMH”; REGN3098; SEQ ID NO: 55), at concentrations ranging from 3.7 nM to 100 nM or 3.3 nM to 90 nM in a series of 3-fold dilutions prepared in HBS-ET running buffer were injected at a flow rate of 30 μL/min for 4 minutes or 50 μL/min for 5 minutes. The dissociation of different CD40 reagents bound to anti-CD40 bivalent parental and anti-CD40×CD40 bispecific antibodies was monitored for 10 minutes in HBS-ET running buffer. At the end of each cycle, the anti-CD40 bivalent parental and anti-CD40×CD40 bispecific antibodies capture surface was regenerated using a 12 sec injection of 20 mM H₃PO₄.
(§2) The association rate (ka) and dissociation rate (kd) were determined by fitting the real-time binding sensorgrams to a 1:1 binding model with mass transport limitation using Scrubber 2.0c curve-fitting software. Binding dissociation equilibrium constant (KD) and dissociative half-life (t_{1/2}) were calculated from the kinetic rates as: KD(M)=kd/kₐ, and t_{1/2} (min)=[ln(2)/(60*kd)].
For orientation: Surface plasmon resonance follows binding to a sensor surface in real time, without labels.

In assay [5] the target is T3, human CD40 extracellular domain expressed with a C-terminal myc-myc-hexahistidine tag (human).
T3 construct: also called hCD40-MMH; hCD40-mmH
Nature of the assay: SPR Biacore 4000, mAb captured, 37C. Here is the method:
as §1, §2

The target in assay [6] is T1, human CD40 (hCD40) expressed on cells. Nature of the assay: flow cytometry, Ramos 2G6.4C10 cells. The procedure, abridged: (§3)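 Cells were incubated 30 min at 4 °C with antibody dilutions from 1.7 pM to 100 nM in 2% FBS/PBS, then with 2.5 μg/ml APC anti-human IgG Fcγ, and fixed. Multiplexed populations were separated by CellTrace signature. APC median fluorescence was fitted with a four-parameter logistic model, and MFI >1500 at 100 nM counted as specific binding.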

Assay [7] shares this target. Nature of the assay: flow cytometry, HEK293/D9/hCD40 cells. The procedure, abridged: as §3
The target in assay [8] is T4, Macaca fascicularis CD40 (mfCD40) expressed on HEK293/D9/mfCD40 cells (Macaca fascicularis, UniProt G7PG38 21-278).
T4 construct: whole, on cells; also called monkey CD40
Nature of the assay: flow cytometry, HEK293/D9/mfCD40 cells. The procedure, abridged: as §3
For orientation: Flow cytometry measures light scatter and fluorescence of single cells or particles in a stream.

T1 sequence (P25942 21-277): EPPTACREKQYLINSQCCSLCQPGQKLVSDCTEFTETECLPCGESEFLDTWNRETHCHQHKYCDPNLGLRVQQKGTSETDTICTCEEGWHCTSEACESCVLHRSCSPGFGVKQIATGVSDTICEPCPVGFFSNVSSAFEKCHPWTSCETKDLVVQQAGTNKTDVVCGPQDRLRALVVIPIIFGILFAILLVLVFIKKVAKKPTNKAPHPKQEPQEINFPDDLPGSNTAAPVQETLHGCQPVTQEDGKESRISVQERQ

B1: 21519P2 (antibody, human IgG4 S228P, kappa, V domains shown)
VH: QLQLQESGPGLVRPSETLSLTCSVSGASMNTNNYYWGWIRQPPGKGLEWIGSGYYNGNTYYNPSLKSRVTISVDTSKNQFSLKLNSVTAADTAVYYCARQTPPRIIGSPNIWGQGTMVTVSS
VL: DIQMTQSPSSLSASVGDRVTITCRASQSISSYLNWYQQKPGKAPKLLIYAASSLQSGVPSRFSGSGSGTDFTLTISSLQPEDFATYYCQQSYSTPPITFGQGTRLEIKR
notes: parental bivalent anti-CD40 mAb; common light chain; also called H4sH21519P2
For orientation: Kd means the concentration at which binding is half-saturated. For orientation: koff means the first-order rate constant of dissociation. The low end stands for a long-lived complex, the high end for a short-lived complex. For orientation: kon means the second-order rate constant of association. Higher therefore signals fast association. The term EC50 denotes the concentration giving half of the maximal effect. The low end stands for a more potent agent, the high end for a less potent agent. With B1, in assay [1], the “IC50, 500 pM hCD40L, Ramos NFkB-luc” value was found to be 3.09e-11 M; the “Max % activation, no ligand, Ramos NFkB-luc” value turned out to be 13%; the “Max % inhibition, 500 pM hCD40L, Ramos NFkB-luc” value (from here on “Max % inhibition, 500 pM hCD40L”) came out at 88%. Besides, in assay [2], the “IC50, 900 pM hCD40L, Raji NFkB-luc” value came to 6.05e-11 M; the “Max % activation, no ligand, Raji NFkB-luc” value was determined as 15%; the “Max % inhibition, 900 pM hCD40L, Raji NFkB-luc” value (“Max % inhibition, 900 pM hCD40L” below) is 92%. In assay [3], the “IC50, 10 nM hCD40L, THP-1 NFkB-luc” value is 0.276 nM; the “Max % activation, no ligand, THP-1 NFkB-luc” value stood at 5%; the “Max % inhibition, 10 nM hCD40L, THP-1 NFkB-luc” value (“Max % inhibition, 10 nM hCD40L” for short) came to 99%. In addition, the “100 nM Ag Bound” value in assay [4] was found to be 1.6 RU. Also, in assay [5], the “100 nM Ag Bound” value turned out to be 105 RU, binding was characterised by a dissociation constant (Kd) of 19.4 nM, the koff worked out at 0.0123 s⁻¹ and the kon was 635000 M⁻¹ s⁻¹. The t1/2 in assay [5] is 0.015 h. In addition, in assay [6], a half-maximal effect (EC50) was put at 1.5 nM and the “MFI at 100 nM” value amounted to 2410 MFI. In assay [7], the EC50 was found to be 1.3 nM and the “MFI at 100 nM” value is 20200 MFI. In assay [8], the midpoint of the response, the EC50, lay at 10 nM and the “MFI at 100 nM” value is 11500 MFI.

B2: REGN16431 (bispecific antibody, human IgG4 S228P, kappa)
heavy 1: QLQLQESGPGLVRPSETLSLTCSVSGASMNTNNYYWGWIRQPPGKGLEWIGSGYYNGNTYYNPSLKSRVTISVDTSKNQFSLKLNSVTAADTAVYYCARQTPPRIIGSPNIWGQGTMVTVSSASTKGPSVFPLAPCSRSTSESTAALGCLVKDYFPEPVTVSWNSGALTSGVHTFPAVLQSSGLYSLSSVVTVPSSSLGTKTYTCNVDHKPSNTKVDKRVESKYGPPCPPCPAPPVAGPSVFLFPPKPKDTLMISRTPEVTCVVVDVSQEDPEVQFNWYVDGVEVHNAKTKPREEQFNSTYRVVSVLTVLHQDWLNGKEYKCKVSNKGLPSSIEKTISKAKGQPREPQVYTLPPSQEEMTKNQVSLTCLVKGFYPSDIAVEWESNGQPENNYKTTPPVLDSDGSFFLYSRLTVDKSRWQEGNVFSCSVMHEALHNHYTQKSLSLSLGK
heavy 2: EVQLVESGGGLVQPGGSLRLSCAASGFTFGSYGMAWVRQAPGKGLEWVSAISGSGDYTNYADSVKRRFTISRDNSKNTLYLQMSSLRAEDTAVYYCAKEKTGTTGYLYSGMDVWGQGTTVTVSSASTKGPSVFPLAPCSRSTSESTAALGCLVKDYFPEPVTVSWNSGALTSGVHTFPAVLQSSGLYSLSSVVTVPSSSLGTKTYTCNVDHKPSNTKVDKRVESKYGPPCPPCPAPPVAGPSVFLFPPKPKDTLMISRTPEVTCVVVDVSQEDPEVQFNWYVDGVEVHNAKTKPREEQFNSTYRVVSVLTVLHQDWLNGKEYKCKVSNKGLPSSIEKTISKAKGQPREPQVYTLPPSQEEMTKNQVSLTCLVKGFYPSDIAVEWESNGQPENNYKTTPPVLDSDGSFFLYSRLTVDKSRWQEGNVFSCSVMHEALHNRFTQKSLSLSPGK
light: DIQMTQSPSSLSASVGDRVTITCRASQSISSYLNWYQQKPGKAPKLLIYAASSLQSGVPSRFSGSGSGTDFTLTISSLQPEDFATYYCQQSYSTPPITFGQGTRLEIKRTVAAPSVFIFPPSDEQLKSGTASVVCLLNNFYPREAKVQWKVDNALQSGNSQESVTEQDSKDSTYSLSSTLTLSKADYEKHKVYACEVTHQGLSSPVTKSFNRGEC
notes: D1 arm from 21519P2, D2 arm from 21520P2, common light chain; also called CD40xCD40 (21519 x 21520)
On to B2, for which, in assay [1], the “IC50, 500 pM hCD40L, Ramos NFkB-luc” value worked out at 8.54e-11 M; the “Max % activation, no ligand, Ramos NFkB-luc” value came to 6%; the “Max % inhibition, 500 pM hCD40L” value was 90%. Besides, in assay [2], the “IC50, 900 pM hCD40L, Raji NFkB-luc” value was found to be 1.07e-10 M; the “Max % activation, no ligand, Raji NFkB-luc” value worked out at 13%; the “Max % inhibition, 900 pM hCD40L” value turned out to be 82%. Moreover, in assay [3], the “IC50, 10 nM hCD40L, THP-1 NFkB-luc” value turned out to be 0.287 nM; the “Max % activation, no ligand, THP-1 NFkB-luc” value is 2%; the “Max % inhibition, 10 nM hCD40L” value was determined as 98%. In addition, in assay [5], the “100 nM Ag Bound” value was found to be 61.2 RU, the Kd is 0.101 nM, the koff worked out at 0.000149 s⁻¹ and the kon came to 1.47e+06 M⁻¹ s⁻¹. In assay [5], the t1/2 worked out at 1.29 h. In assay [6], it took 1.9 nM to reach a half-maximal effect (EC50) and the “MFI at 100 nM” value was 3850 MFI. In assay [7], the midpoint of the response, the EC50, lay at 1.9 nM and the “MFI at 100 nM” value was 29500 MFI. In addition, in assay [8], the EC50 stood at 8.4 nM and the “MFI at 100 nM” value is 43100 MFI.

B3: REGN16432 (bispecific antibody, human IgG4 S228P, kappa)
heavy 1: EVQLVESGGGLVQPGGSLRLSCAASGFTFSSYAMNWVRQAPGKGLEWVSIISGTIGKTYYADSVKGRFTISRDNSKNTLYLQMNSLRGEDTAVYYCAKDTERDITGSPFDYWGQGTLVTVSSASTKGPSVFPLAPCSRSTSESTAALGCLVKDYFPEPVTVSWNSGALTSGVHTFPAVLQSSGLYSLSSVVTVPSSSLGTKTYTCNVDHKPSNTKVDKRVESKYGPPCPPCPAPPVAGPSVFLFPPKPKDTLMISRTPEVTCVVVDVSQEDPEVQFNWYVDGVEVHNAKTKPREEQFNSTYRVVSVLTVLHQDWLNGKEYKCKVSNKGLPSSIEKTISKAKGQPREPQVYTLPPSQEEMTKNQVSLTCLVKGFYPSDIAVEWESNGQPENNYKTTPPVLDSDGSFFLYSRLTVDKSRWQEGNVFSCSVMHEALHNHYTQKSLSLSLGK
heavy 2: EVQLVESGGGLVQPGGSLRLSCAASGFTFGSYGMAWVRQAPGKGLEWVSAISGSGDYTNYADSVKRRFTISRDNSKNTLYLQMSSLRAEDTAVYYCAKEKTGTTGYLYSGMDVWGQGTTVTVSSASTKGPSVFPLAPCSRSTSESTAALGCLVKDYFPEPVTVSWNSGALTSGVHTFPAVLQSSGLYSLSSVVTVPSSSLGTKTYTCNVDHKPSNTKVDKRVESKYGPPCPPCPAPPVAGPSVFLFPPKPKDTLMISRTPEVTCVVVDVSQEDPEVQFNWYVDGVEVHNAKTKPREEQFNSTYRVVSVLTVLHQDWLNGKEYKCKVSNKGLPSSIEKTISKAKGQPREPQVYTLPPSQEEMTKNQVSLTCLVKGFYPSDIAVEWESNGQPENNYKTTPPVLDSDGSFFLYSRLTVDKSRWQEGNVFSCSVMHEALHNRFTQKSLSLSPGK
light: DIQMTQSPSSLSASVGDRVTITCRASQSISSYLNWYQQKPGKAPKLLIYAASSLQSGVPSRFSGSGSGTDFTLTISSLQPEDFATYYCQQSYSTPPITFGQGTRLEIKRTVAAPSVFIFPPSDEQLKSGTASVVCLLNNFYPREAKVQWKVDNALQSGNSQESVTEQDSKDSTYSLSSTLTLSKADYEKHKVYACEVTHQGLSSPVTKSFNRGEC
notes: D1 arm from 30027P2, D2 arm from 21520P2, common light chain; also called CD40xCD40 (30027 x 21520)
As to B3, in assay [1], the “IC50, 500 pM hCD40L, Ramos NFkB-luc” value amounted to 4.92e-11 M; the “Max % activation, no ligand, Ramos NFkB-luc” value is 4%; the “Max % inhibition, 500 pM hCD40L” value worked out at 94%. Also, in assay [2], the “IC50, 900 pM hCD40L, Raji NFkB-luc” value was determined as 1.02e-10 M; the “Max % activation, no ligand, Raji NFkB-luc” value turned out to be 5%; the “Max % inhibition, 900 pM hCD40L” value was determined as 68%. In assay [3], the “IC50, 10 nM hCD40L, THP-1 NFkB-luc” value was determined as 0.148 nM; the “Max % activation, no ligand, THP-1 NFkB-luc” value was 6%; the “Max % inhibition, 10 nM hCD40L” value was determined as 97%. In assay [5], the “100 nM Ag Bound” value was 56.6 RU; the affinity, expressed as Kd, was 0.163 nM; the dissociation rate constant (koff) was 0.000125 s⁻¹; the kon came out at 769000 M⁻¹ s⁻¹. The molecule further gave a t1/2 in assay [5] of 1.54 h. In addition, in assay [6], the EC50 was 1.1 nM and the “MFI at 100 nM” value is 3850 MFI. In addition, in assay [7], a half-maximal response (EC50) required 1.5 nM and the “MFI at 100 nM” value worked out at 30300 MFI. In assay [8], the EC50 amounted to 2.1 nM and the “MFI at 100 nM” value turned out to be 48700 MFI.

These data come from patent US20250277048A1 (Regeneron, published 2025).
